Here are results for 1 protein from publication PMC9741107, “The L-Rhamnose Biosynthetic Pathway in Trichomonas vaginalis: Identification and Characterization of UDP-D-Glucose 4,6-dehydratase” (International Journal of Molecular Sciences, 2022).

What is called Km is the substrate concentration at which the rate is half of its maximum. What is called kcat is the number of substrate molecules converted per active site and unit of time at saturation. A word on the stoichiometry N: it is the number of molecules, sites or subunits per partner or assembly.

Substrate in data set [1]: Cc1cn([C@H]2C[C@H](O)[C@@H](COP(=O)(O)OP(=O)(O)O[C@H]3O[C@H](CO)[C@@H](O)[C@H](O)[C@H]3O)O2)c(=O)[nH]c1=O
Description: anion-exchange HPLC of substrate consumption, Michaelis-Menten fit. It counts as biochemical, Trichomonas vaginalis. Particulars: 50 mM Tris/HCl, 150 mM NaCl, pH 7.0, 25 °C, no added NAD(P)+ or bivalent cations needed.

Substrate in data set [2]: O=c1ccn([C@@H]2O[C@H](CO[P@@](=O)(O)O[P@@](=O)(O)O[C@H]3O[C@H](CO)[C@@H](O)[C@H](O)[C@H]3O)[C@@H](O)[C@H]2O)c(=O)[nH]1
Described as above. It counts as biochemical, Trichomonas vaginalis. Particulars: 50 mM Tris/HCl, 150 mM NaCl, pH 7.0, 25 °C, no added NAD(P)+ or bivalent cations needed.

Data set [3] concerns the molecule itself. Description: SEC; size-exclusion chromatography of the purified protein on a TSK-gel 3000 column, as described in ref. 23; molecular weight calculated from the elution time.

B1: UDP-D-glucose 4,6-dehydratase from Trichomonas vaginalis (TvUGD, TVAG_414560) (enzyme, Trichomonas vaginalis (strain G3), UniProt A2GEF2 1-348, looked up)
chain: MSEDYQPHVILLTGGAGFIGSHVCNHLVLKYPDVKIICLDVMDYCANLRNLEEIMNKPNFLFIKGSINNVELVSYIMKTHAVDTVMHFAAQSHVDRSFGNSLEFTHTNILGTHVLLECAKQNNIKRFIHVSTDEVYGEVLSGCAEEEKSILCPTNPYACSKAGAEFMCQAYIRSFNMPIIITRGNNVFGPKQFPEKVIPKFTLLLKAGHKCCIHGDGSALRNFLHTSDVVQAFDTILHKGKLHQIYNIGTDFEISVLEMTKKLIKVLNMPGKPEDWIEFVPDRAFNDSRYMINSSKLIALGWHANTDFDTLLKETVQWYLDHMDYWKDRDINTYLSPHPIAYAPKTAE
notes: calculated monomer mass 39 kDa; Residues of the vector may remain after protease cleavage; also called TvGD; UDP-D-Glc 4,6-dehydratase; source: E. coli BL21, GST-fusion from pGEX-6P1, purified on GSH-sepharose 4B, GST removed by precision protease cleavage
Take B1: the Michaelis-Menten constant (Km) in data set [1] was determined as 362.8 ± 73.4 µM; in data set [2], 21.3 ± 3.4 µM. Besides, the kcat in data set [1] was 0.36 ± 0.03 s⁻¹; in data set [2], 0.39 ± 0.01 s⁻¹. The “stoichiometry N” value in data set [3] was 2.
